Source: paper PMC8222386

Key:
[1] = biological target: iLight (evolved photosensory core module of Idiomarina sp. bacterial phytochrome IsPadC) (Idiomarina sp. A28L)
[2] = biological target: iLight (evolved photosensory core module of Idiomarina sp. bacterial phytochrome IsPadC) (Idiomarina sp. A28L); remark: listed apart in the source
[3] = biological target: iLight (evolved photosensory core module of Idiomarina sp. bacterial phytochrome IsPadC) (Idiomarina sp. A28L); remark: listed apart in the source
[4] = biological target: iLight (evolved photosensory core module of Idiomarina sp. bacterial phytochrome IsPadC) (Idiomarina sp. A28L); assay: native gel or EMSA + SEC; Pr state: purified protein illuminated with 780/30 nm light (2 mW/cm2, 0.5 h) in 20 mM HEPES pH 7.7, 300 mM NaCl; native PAGE 4-20% gradient gel, 20 ug per lane, run in darkness, ZnCl2 staining; SEC on HiLoad 16/600 Superdex 200 in darkness, protein at 1.9 mg/ml
[5] = biological target: iLight (evolved photosensory core module of Idiomarina sp. bacterial phytochrome IsPadC) (Idiomarina sp. A28L); assay: native gel or EMSA + SEC; Pfr state: purified protein illuminated with 660/15 nm light (2 mW/cm2, 0.5 h) in 20 mM HEPES pH 7.7, 300 mM NaCl; native PAGE 4-20% gradient gel, 20 ug per lane, run in darkness, ZnCl2 staining; SEC on HiLoad 16/600 Superdex 200 in darkness, protein at 1.9 mg/ml; step: dimers to tetramer
[6] = biological target: wild-type IsPadC-PCM (photosensory core module of Idiomarina sp. A28L phytochrome-activated diguanylyl cyclase) (Idiomarina sp. A28L); assay: native gel or EMSA; native PAGE of Fig. 3f, 20 ug per lane, ZnCl2 staining for bound biliverdin; illumination state not told for this statement; step: monomers to dimer

Substance	RLuc8 reporter signal in livers of mice co-transfected with NLS-Gal4-DBD-iLight-VP16 and pG12-RLuc8, 24 h of 660 nm light against darkness [1]	repression of the ColE-driven mCherry reporter in E. coli by LexA408-DBD-iLight-msfGFP, 660 nm light against darkness [2]	SEAP reporter production in HeLa cells with NLS-Gal4-DBD-iLight-VP16 after 48 h of 660 nm light against darkness, exogenous biliverdin from none (~20.5-fold) to 10 uM [3]	time course of SEAP reporter production in HeLa cells with NLS-Gal4-DBD-iLight-VP16, 660 nm light against darkness, 24 h (~19-fold) to 72 h [3]	stoichiometry N [4]	stoichiometry N [5]	stoichiometry N [6]
iLight (evolved photosensory core module of Idiomarina sp. bacterial phytochrome IsPadC) (domain or fragment)	6 fold	115 fold	65 to 70 fold	70 fold	2	4	
wild-type IsPadC-PCM (photosensory core module of Idiomarina sp. A28L phytochrome-activated diguanylyl cyclase) (domain or fragment)							2
